In the assay the target is T1, CD20 (human, UniProt P11836 1-297).
T1 construct: whole, on cells; target on WIL2-S (WIL-2S), Ramos and BJAB cells; also called human CD20
T1 sequence (looked up): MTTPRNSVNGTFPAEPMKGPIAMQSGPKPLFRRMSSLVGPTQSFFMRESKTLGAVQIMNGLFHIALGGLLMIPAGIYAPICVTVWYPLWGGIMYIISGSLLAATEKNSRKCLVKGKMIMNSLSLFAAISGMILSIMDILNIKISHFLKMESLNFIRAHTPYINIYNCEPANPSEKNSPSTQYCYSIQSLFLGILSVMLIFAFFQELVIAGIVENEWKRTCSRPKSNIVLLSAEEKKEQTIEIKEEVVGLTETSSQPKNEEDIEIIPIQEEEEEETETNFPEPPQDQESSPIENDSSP
Kind of assay: flow cytometry: 2e12 HL SMIP on WIL-2S cells (CD20), then CD28mIgG 5 ug/ml and FITC anti-mouse 1:100. As to the method: In this case, the fusion proteins were first bound to WIL-2S CD20 expressing cells, and binding was then detected with CD28mIgG (5 µg/ml) and FITC anti-mouse reagent at 1:100.
(In general: In flow cytometry, cells or beads pass a laser one at a time.)

B1: 2E12IgG-VHVL SMIP (Fc fusion)
chain: VQVQLKESGPGLVAPSQSLSITCTVSGFSLTGYGVNWVRQPPGKGLEWLGMIWGDGSTDYNSALKSRLSITKDNSKSQVFLKMNSLQTDDTARYYCARDGYSNFHYYVMDYWGQGTSVTVSSGGGGSGGGGSGGGGSGGGGSDIVLTQSPASLAVSLGQRATISCRASESVEYYVTSLMQWYQQKPGQPPKLLISAASNVESGVPARFSGSGSGTDFSLNIHPVEEDDIAMYFCQQSRKVPWTFGGGTKLEIKR
notes: also called 2e12 VHVL SMIP; 2e12 HL SMIP; not shown: IgG hinge-CH2-CH3 of the SMIP, not described
Take B1: the binding result was “no binding (tested: about 5 ug/mL (read off the axis))”.

The values are drawn from patent publication US8409577 (EMERGENT PRODUCT DEVELOPMENT SEATTLE, dated 2013).
